Where “and” joins values, the source holds several entries; their conditions need not be identical. Equal values may be shown once.
Assays:
[1] = system: P12643; assay: dynamic light scattering (DLS); BMP-2 in MES buffer pH 5, 25 °C, 173°; association of BMP-2 dimers to aggregates; details: other: dynamic light scattering (DLS)
[2] = target: E. coli-derived recombinant human bone morphogenetic protein 2 (rhBMP-2) (human) (UniProt P12643); assay: native gel or EMSA; blue native PAGE of BMP-2 solutions, Western blot with anti-BMP-2 and silver stain; oligomers of the disulfide-bridged 26 kDa dimer

Chain of E. coli-derived recombinant human bone morphogenetic protein 2 (rhBMP-2) (P12643 283-396 limits assumed): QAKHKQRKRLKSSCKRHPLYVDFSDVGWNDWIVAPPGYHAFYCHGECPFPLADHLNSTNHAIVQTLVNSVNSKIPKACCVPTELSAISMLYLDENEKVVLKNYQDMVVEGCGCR

Row | stoichiometry N (26 kDa BMP-2 dimers) [2] | Substance | percent of BMP-2 in larger aggregates (DLS) [1]
1 | – | E. coli-derived recombinant human bone morphogenetic protein 2 (rhBMP-2) | 3% was apparently in the form of larger aggregates
2 | 2 and 4 | E. coli-derived recombinant human bone morphogenetic protein 2 (rhBMP-2) (from UniProt P12643 24-396) (ligand) | –
